Read-outs that look alike come from different tables or passages of the source. Each block holds one substance with its values, some of them ahead of it.
What was measured:
Experiment in all cases: cell-based or functional assay
[1] = target: human TSH receptor (full length, wild type) expressed on CHO cells (human) (UniProt P16473)
[2] = target: TSHR with Lys183 mutated to Asp expressed in CHO cells (human) (UniProt P16473)
[3] = target: TSHR with Glu61 mutated to Ala, expressed in CHO cells (human) (UniProt P16473)
[4] = target: TSHR with Ser281 mutated to Ala, expressed in CHO cells (human) (UniProt P16473)
[5] = target: TSHR with Tyr82 mutated to Ala expressed in CHO cells (human) (UniProt P16473)
[6] = target: wild type TSHR expressed in CHO cells (human) (UniProt P16473)
[7] = target: TSHR with Glu107 mutated to Ala expressed in CHO cells (human) (UniProt P16473)
[8] = target: wild type TSHR (human TSH receptor) expressed in CHO cells (human) (UniProt P16473)
[9] = target: TSHR with Glu178 mutated to Ala expressed in CHO cells (human) (UniProt P16473)
[10] = target: TSHR with Ile60 mutated to Ala, expressed in CHO cells (human) (UniProt P16473)
[11] = target: TSHR with Phe130 mutated to Ala, expressed in CHO cells (human) (UniProt P16473)
[12] = target: wild type TSHR expressed in CHO cells (human) (UniProt P16473); remark: listed apart in the source
[13] = target: TSHR with Phe134 mutated to Ala, expressed in CHO cells (human) (UniProt P16473)
[14] = target: wild type TSHR expressed in CHO cells (human) (UniProt P16473); remark: listed apart in the source

- Cyclic AMP concentration in hypotonic medium; 100 ng/mL hTSH alone [1]: 56.8 pmol/mL
- Cyclic AMP concentration in isotonic medium; 100 ng/mL hTSH alone [1]: 42.3 pmol/mL
Substance: native human TSH (from UniProt P01215 25-116; P01222 21-132) (ligand)

- % inhibition of TSH stimulation; 5B3 10 µg/mL [2]: 11%
- % inhibition of TSH stimulation; 5B3 100 µg/mL [2]: 0%
- Cyclic AMP produced; 5B3 10 µg/mL + TSH 3 ng/mL [2]: 105 pmol/mL
- Cyclic AMP produced; 5B3 100 µg/mL + TSH 3 ng/mL [2]: 128 pmol/mL
- Mutated/wild type (%) of cyclic AMP produced; 5B3 10 µg/mL + TSH 3 ng/mL [2]: 112%
- Mutated/wild type (%) of cyclic AMP produced; 5B3 100 µg/mL + TSH 3 ng/mL [2]: 117%
- % inhibition of TSH stimulation; 5B3 10 µg/mL [3]: 0%
- % inhibition of TSH stimulation; 5B3 100 µg/mL [3]: 9%
- Mutated/wild type (%) of cyclic AMP produced; 5B3 10 µg/mL + TSH 3 ng/mL [3]: 68%
- Mutated/wild type (%) of cyclic AMP produced; 5B3 100 µg/mL + TSH 3 ng/mL [3]: 55%
- % inhibition of TSH stimulation; 5B3 10 µg/mL; Experiment 1 [4]: 19%
- % inhibition of TSH stimulation; 5B3 10 µg/mL; Experiment 2 [4]: 4%
- % inhibition of TSH stimulation; 5B3 100 µg/mL; Experiment 1 [4]: 11%
- % inhibition of TSH stimulation; 5B3 100 µg/mL; Experiment 2 [4]: 0%
- Mutated/wild type (%) of cyclic AMP produced; test sample 5B3 10 µg/mL + TSH (3 ng/mL); Experiment 1 [4]: 67%
- Mutated/wild type (%) of cyclic AMP produced; test sample 5B3 10 µg/mL + TSH (3 ng/mL); Experiment 2 [4]: 80%
- Mutated/wild type (%) of cyclic AMP produced; test sample 5B3 100 µg/mL + TSH (3 ng/mL); Experiment 1 [4]: 71%
- Mutated/wild type (%) of cyclic AMP produced; test sample 5B3 100 µg/mL + TSH (3 ng/mL); Experiment 2 [4]: 87%
- % inhibition of TSH stimulation; 5B3 10 µg/mL; Experiment 1 [5]: 16%
- % inhibition of TSH stimulation; 5B3 10 µg/mL; Experiment 2 [5]: 4%
- % inhibition of TSH stimulation; 5B3 100 µg/mL; Experiment 1 [5]: 16%
- % inhibition of TSH stimulation; 5B3 100 µg/mL; Experiment 2 [5]: 8%
- Cyclic AMP produced; 5B3 10 µg/mL + TSH 3 ng/mL; Experiment 1 [5]: 139 pmol/mL
- Cyclic AMP produced; 5B3 10 µg/mL + TSH 3 ng/mL; Experiment 2 [5]: 71.9 pmol/mL
- Cyclic AMP produced; 5B3 100 µg/mL + TSH 3 ng/mL; Experiment 1 [5]: 139 pmol/mL
- Cyclic AMP produced; 5B3 100 µg/mL + TSH 3 ng/mL; Experiment 2 [5]: 68.5 pmol/mL
- Mutated/wild type (%) of cyclic AMP produced; 5B3 10 µg/mL + TSH 3 ng/mL; Experiment 1 [5]: 85%
- Mutated/wild type (%) of cyclic AMP produced; 5B3 10 µg/mL + TSH 3 ng/mL; Experiment 2 [5]: 96%
- Mutated/wild type (%) of cyclic AMP produced; 5B3 100 µg/mL + TSH 3 ng/mL; Experiment 1 [5]: 95%
- Mutated/wild type (%) of cyclic AMP produced; 5B3 100 µg/mL + TSH 3 ng/mL; Experiment 2 [5]: 99%
- % inhibition of TSH stimulation; 5B3 10 µg/mL [6]: 0%
- % inhibition of TSH stimulation; 5B3 10 µg/mL; Exp 1 [6]: 0%
- % inhibition of TSH stimulation; 5B3 10 µg/mL; Exp 2 [6]: 0%
- % inhibition of TSH stimulation; 5B3 10 µg/mL; Experiment 1 [6]: 0%
- % inhibition of TSH stimulation; 5B3 10 µg/mL; Experiment 2 [6]: 0%
- % inhibition of TSH stimulation; 5B3 100 µg/mL [6]: 0%
- % inhibition of TSH stimulation; 5B3 100 µg/mL; Exp 1 [6]: 0%
- % inhibition of TSH stimulation; 5B3 100 µg/mL; Exp 2 [6]: 0%
- % inhibition of TSH stimulation; 5B3 100 µg/mL; Experiment 1 [6]: 5%
- % inhibition of TSH stimulation; 5B3 100 µg/mL; Experiment 2 [6]: 0%
- Cyclic AMP produced; 5B3 10 µg/mL + TSH 3 ng/mL [6]: 85.3 pmol/mL
- Cyclic AMP produced; 5B3 10 µg/mL + TSH 3 ng/mL; Exp 1 [6]: 65.7 pmol/mL
- Cyclic AMP produced; 5B3 10 µg/mL + TSH 3 ng/mL; Exp 2 [6]: 100 pmol/mL
- Cyclic AMP produced; 5B3 10 µg/mL + TSH 3 ng/mL; Experiment 1 [6]: 163 pmol/mL
- Cyclic AMP produced; 5B3 10 µg/mL + TSH 3 ng/mL; Experiment 2 [6]: 73.7 pmol/mL
- Cyclic AMP produced; 5B3 100 µg/mL + TSH 3 ng/mL [6]: 81.6 pmol/mL
- Cyclic AMP produced; 5B3 100 µg/mL + TSH 3 ng/mL; Exp 1 [6]: 65.5 pmol/mL
- Cyclic AMP produced; 5B3 100 µg/mL + TSH 3 ng/mL; Exp 2 [6]: 98.1 pmol/mL
- Cyclic AMP produced; 5B3 100 µg/mL + TSH 3 ng/mL; Experiment 1 [6]: 146 pmol/mL
- Cyclic AMP produced; 5B3 100 µg/mL + TSH 3 ng/mL; Experiment 2 [6]: 68.9 pmol/mL
- % inhibition of TSH stimulation; 5B3 10 µg/mL ([6]; record 2): 0%
- % inhibition of TSH stimulation; 5B3 10 µg/mL; Experiment 1 ([6]; record 2): 4%
- % inhibition of TSH stimulation; 5B3 10 µg/mL; Experiment 2 ([6]; record 2): 0%
- % inhibition of TSH stimulation; 5B3 100 µg/mL ([6]; record 2): 0%
- % inhibition of TSH stimulation; 5B3 100 µg/mL; Experiment 1 ([6]; record 2): 0%
- % inhibition of TSH stimulation; 5B3 100 µg/mL; Experiment 2 ([6]; record 2): 0%
- Cyclic AMP produced; 5B3 10 µg/mL + TSH 3 ng/mL ([6]; record 2): 93.7 pmol/mL
- Cyclic AMP produced; 5B3 100 µg/mL + TSH 3 ng/mL ([6]; record 2): 109 pmol/mL
- % inhibition of TSH stimulation; 5B3 10 µg/mL [7]: 15%
- % inhibition of TSH stimulation; 5B3 100 µg/mL [7]: 17%
- Cyclic AMP produced; 5B3 10 µg/mL + TSH 3 ng/mL [7]: 70.9 pmol/mL
- Cyclic AMP produced; 5B3 100 µg/mL + TSH 3 ng/mL [7]: 66.8 pmol/mL
- Mutated/wild type (%) of cyclic AMP produced; 5B3 10 µg/mL + TSH 3 ng/mL [7]: 83%
- Mutated/wild type (%) of cyclic AMP produced; 5B3 100 µg/mL + TSH 3 ng/mL [7]: 82%
- % inhibition of TSH stimulation; 5B3 10 µg/mL [8]: 1%
- % inhibition of TSH stimulation; 5B3 10 µg/mL; Experiment 1 [8]: 0%
- % inhibition of TSH stimulation; 5B3 10 µg/mL; Experiment 2 [8]: 0%
- % inhibition of TSH stimulation; 5B3 100 µg/mL [8]: 0%
- % inhibition of TSH stimulation; 5B3 100 µg/mL; Experiment 1 [8]: 2%
- % inhibition of TSH stimulation; 5B3 100 µg/mL; Experiment 2 [8]: 0%
- % inhibition of TSH stimulation; 5B3 10 µg/mL; Exp 1 [9]: 0%
- % inhibition of TSH stimulation; 5B3 10 µg/mL; Exp 2 [9]: 0%
- % inhibition of TSH stimulation; 5B3 100 µg/mL; Exp 1 [9]: 0%
- % inhibition of TSH stimulation; 5B3 100 µg/mL; Exp 2 [9]: 3%
- Cyclic AMP produced; 5B3 10 µg/mL + TSH 3 ng/mL; Exp 1 [9]: 57.6 pmol/mL
- Cyclic AMP produced; 5B3 10 µg/mL + TSH 3 ng/mL; Exp 2 [9]: 55 pmol/mL
- Cyclic AMP produced; 5B3 100 µg/mL + TSH 3 ng/mL; Exp 1 [9]: 57 pmol/mL
- Cyclic AMP produced; 5B3 100 µg/mL + TSH 3 ng/mL; Exp 2 [9]: 45 pmol/mL
- Mutated/wild type (%) of cyclic AMP produced; 5B3 10 µg/mL + TSH 3 ng/mL; Exp 1 [9]: 88%
- Mutated/wild type (%) of cyclic AMP produced; 5B3 10 µg/mL + TSH 3 ng/mL; Exp 2 [9]: 55%
- Mutated/wild type (%) of cyclic AMP produced; 5B3 100 µg/mL + TSH 3 ng/mL; Exp 1 [9]: 87%
- Mutated/wild type (%) of cyclic AMP produced; 5B3 100 µg/mL + TSH 3 ng/mL; Exp 2 [9]: 46%
- % inhibition of TSH stimulation; 5B3 10 µg/mL; Experiment 1 [10]: 0%
- % inhibition of TSH stimulation; 5B3 10 µg/mL; Experiment 2 [10]: 17%
- % inhibition of TSH stimulation; 5B3 100 µg/mL; Experiment 1 [10]: 14%
- % inhibition of TSH stimulation; 5B3 100 µg/mL; Experiment 2 [10]: 0%
- Mutated/wild type (%) of cyclic AMP produced; 5B3 10 µg/mL + TSH 3 ng/mL; Experiment 1 [10]: 58%
- Mutated/wild type (%) of cyclic AMP produced; 5B3 10 µg/mL + TSH 3 ng/mL; Experiment 2 [10]: 53%
- Mutated/wild type (%) of cyclic AMP produced; 5B3 100 µg/mL + TSH 3 ng/mL; Experiment 1 [10]: 50%
- Mutated/wild type (%) of cyclic AMP produced; 5B3 100 µg/mL + TSH 3 ng/mL; Experiment 2 [10]: 62%
- % inhibition of TSH stimulation; 5B3 10 µg/mL [11]: 8%
- % inhibition of TSH stimulation; 5B3 100 µg/mL [11]: 6%
- Cyclic AMP produced; 5B3 10 µg/mL + TSH 3 ng/mL [11]: 111 pmol/mL
- Cyclic AMP produced; 5B3 100 µg/mL + TSH 3 ng/mL [11]: 114 pmol/mL
- Mutated/wild type (%) of cyclic AMP produced; 5B3 10 µg/mL + TSH 3 ng/mL [11]: 142%
- Mutated/wild type (%) of cyclic AMP produced; 5B3 100 µg/mL + TSH 3 ng/mL [11]: 131%
- % inhibition of TSH stimulation; 5B3 10 µg/mL [12]: 2%
- % inhibition of TSH stimulation; 5B3 100 µg/mL [12]: 0%
- Cyclic AMP produced; 5B3 10 µg/mL + TSH 3 ng/mL [12]: 78.2 pmol/mL
- Cyclic AMP produced; 5B3 100 µg/mL + TSH 3 ng/mL [12]: 86.9 pmol/mL
- % inhibition of TSH stimulation; 5B3 10 µg/mL [13]: 9%
- % inhibition of TSH stimulation; 5B3 100 µg/mL [13]: 0%
- Cyclic AMP produced; 5B3 10 µg/mL + TSH 3 ng/mL [13]: 101 pmol/mL
- Cyclic AMP produced; 5B3 100 µg/mL + TSH 3 ng/mL [13]: 116 pmol/mL
- Mutated/wild type (%) of cyclic AMP produced; 5B3 10 µg/mL + TSH 3 ng/mL [13]: 77%
- Mutated/wild type (%) of cyclic AMP produced; 5B3 100 µg/mL + TSH 3 ng/mL [13]: 103%
- % inhibition of TSH stimulation; 5B3 10 µg/mL [14]: 0%
- Cyclic AMP produced; 5B3 10 µg/mL + TSH 3 ng/mL [14]: 131 pmol/mL
- Cyclic AMP produced; 5B3 100 µg/mL + TSH 3 ng/mL [14]: 112 pmol/mL
Substance: 5B3 (human monoclonal antibody to GAD, negative control for K1-70)

Source: patent publication US20110300138A1 (published 2011)
